What was measured:
Test in all cases: negative-stain EM
[1] = biological target: H5/1 GCN4 (IN05 head, PR8 stalk, GCN4-trimerized) (influenza A virus A/Puerto Rico/8/34/Mount Sinai(H1N1) | influenza A virus A/Indonesia/5/2005(H5N1))
[2] = biological target: H1 GCN4 (NL09 HA, GCN4-trimerized) (influenza A virus A/Netherlands/602/2009(H1N1))
[3] = biological target: H2/1 GCN4 (SG57 head, PR8 stalk, GCN4-trimerized) (influenza A virus A/Puerto Rico/8/34/Mount Sinai(H1N1) | influenza A virus A/Singapore/1/1957(H2N2))
[4] = biological target: H1/1 GCN4 (NL09 head, PR8 stalk, GCN4-trimerized) (influenza A virus A/Puerto Rico/8/34/Mount Sinai(H1N1) | influenza A virus A/Netherlands/602/2009(H1N1))

| Substance | stoichiometry N (Fabs per trimer) [1] | stoichiometry N (Fabs per trimer) [2] | stoichiometry N (Fabs per trimer) [3] | stoichiometry N (Fabs per trimer) [4] | stoichiometry N [4] |
| --- | --- | --- | --- | --- | --- |
| CR9114 Fab | 3 | 3 | 3 | 3 | – |
| H1/1 GCN4 (NL09 head, PR8 stalk, GCN4-trimerized) (domain or fragment) | – | – | – | – | 3 |
